From publication PMC7771633 (Cell, 2020)

B1: HENV-32, human monoclonal antibody, IgG (antibody, V domains shown)
VH: QVQLVQSGAEVKKPGSSVKVSCKVSGGIFNRETINWVRQAPGQGLEWMGRITPIVDVPNYPRKFRGRVTITADKSTSTVYMELSGLRFEDTAIYFCARFRGHNYFDPWGQGTLVTVSS
VL: SYVLTQPPSVSVAPGQTARITCGGNNIGGKSVHWYQQKPGQAPVLVVYDDRDRPSGIPERFSGSNSGDTASLTISRVDAGDEADYFCQVWDNASDEAVFGGGTKLTVL
B2: HENV-32 Fab (Fab, V domains shown)
VH: QVQLVQSGAEVKKPGSSVKVSCKVSGGIFNRETINWVRQAPGQGLEWMGRITPIVDVPNYPRKFRGRVTITADKSTSTVYMELSGLRFEDTAIYFCARFRGHNYFDPWGQGTLVTVSS
VL: SYVLTQPPSVSVAPGQTARITCGGNNIGGKSVHWYQQKPGQAPVLVVYDDRDRPSGIPERFSGSNSGDTASLTISRVDAGDEADYFCQVWDNASDEAVFGGGTKLTVL
B3: HENV-26, human monoclonal antibody, IgG (antibody, V domains shown)
VH: EVQLLESGGGLIQPGGSLRLSCAASGFTFSRFTMSWVRQPPGKGPEWVSGISGSGGHTYYADSVKGRFTISRDNSKNTLYLQMNSLKAEDTAVYYCAKDGFVGQQLMRRGPWWFDPWGQGTLVTVSS
VL: SYVLTQPPSVSVAPGQTARISCGGNNIGNKGVHWYQQKPGQAPVVVVYDDSDRPSGIPERFSGSNSGNTATLTISRVEAGDEADYYCQVWDSSSDHVVFGGGTKLTVL

Experiments:
[1] = molecular target: full-length HeV-RBP expressed on the surface of mammalian cells (Hendra virus, UniProt O89343); assay: cell-based or functional assay
[2] = molecular target: full-length NiVM RBP expressed on the surface of mammalian cells (Nipah virus, strain Malaysia, UniProt Q9IH62); assay: cell-based or functional assay
[3] = molecular target: T1, HeV-RBP head domain (Hendra virus receptor binding protein, residues 185 – 604) (Hendra virus, UniProt O89343); assay: ELISA
[4] = molecular target: T1, HeV-RBP head domain (Hendra virus …); assay: BLI
[5] = molecular target: full-length NiVB RBP expressed on the surface of mammalian cells (Nipah virus, strain Bangladesh, UniProt Q4VCP5, strain); assay: flow cytometry on cells

T1 sequence (O89343 185-604): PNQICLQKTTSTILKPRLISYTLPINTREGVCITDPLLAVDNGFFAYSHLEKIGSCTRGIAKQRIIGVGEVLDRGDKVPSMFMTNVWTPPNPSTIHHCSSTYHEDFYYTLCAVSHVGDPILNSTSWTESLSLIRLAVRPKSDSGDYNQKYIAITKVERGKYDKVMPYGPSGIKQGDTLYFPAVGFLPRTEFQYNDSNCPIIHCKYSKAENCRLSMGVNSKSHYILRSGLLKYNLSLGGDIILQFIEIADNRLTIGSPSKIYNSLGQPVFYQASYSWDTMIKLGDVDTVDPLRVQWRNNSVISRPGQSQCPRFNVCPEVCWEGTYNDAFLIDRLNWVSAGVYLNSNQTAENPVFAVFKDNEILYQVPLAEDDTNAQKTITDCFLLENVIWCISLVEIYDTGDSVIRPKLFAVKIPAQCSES
Sequence of full-length NiVM RBP expressed on the surface of mammalian cells (Q9IH62 whole entry, the tested form may be a part): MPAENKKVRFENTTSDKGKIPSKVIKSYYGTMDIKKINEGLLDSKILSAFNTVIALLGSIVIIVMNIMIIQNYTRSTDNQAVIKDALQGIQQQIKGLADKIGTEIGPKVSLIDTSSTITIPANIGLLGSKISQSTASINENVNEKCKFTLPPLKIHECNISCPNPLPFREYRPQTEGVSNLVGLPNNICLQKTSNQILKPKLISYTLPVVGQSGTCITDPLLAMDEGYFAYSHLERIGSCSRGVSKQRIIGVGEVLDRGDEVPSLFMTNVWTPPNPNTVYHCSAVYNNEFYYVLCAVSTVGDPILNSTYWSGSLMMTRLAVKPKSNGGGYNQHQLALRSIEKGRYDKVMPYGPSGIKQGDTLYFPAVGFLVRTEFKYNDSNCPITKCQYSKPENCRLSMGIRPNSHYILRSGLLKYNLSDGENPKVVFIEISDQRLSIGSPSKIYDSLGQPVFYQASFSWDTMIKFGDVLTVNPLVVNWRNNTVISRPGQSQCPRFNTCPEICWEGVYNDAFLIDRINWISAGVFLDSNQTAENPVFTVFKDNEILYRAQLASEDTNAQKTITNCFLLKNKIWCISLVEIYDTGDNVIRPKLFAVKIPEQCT
Sequence of full-length HeV-RBP expressed on the surface of mammalian cells (O89343 whole entry): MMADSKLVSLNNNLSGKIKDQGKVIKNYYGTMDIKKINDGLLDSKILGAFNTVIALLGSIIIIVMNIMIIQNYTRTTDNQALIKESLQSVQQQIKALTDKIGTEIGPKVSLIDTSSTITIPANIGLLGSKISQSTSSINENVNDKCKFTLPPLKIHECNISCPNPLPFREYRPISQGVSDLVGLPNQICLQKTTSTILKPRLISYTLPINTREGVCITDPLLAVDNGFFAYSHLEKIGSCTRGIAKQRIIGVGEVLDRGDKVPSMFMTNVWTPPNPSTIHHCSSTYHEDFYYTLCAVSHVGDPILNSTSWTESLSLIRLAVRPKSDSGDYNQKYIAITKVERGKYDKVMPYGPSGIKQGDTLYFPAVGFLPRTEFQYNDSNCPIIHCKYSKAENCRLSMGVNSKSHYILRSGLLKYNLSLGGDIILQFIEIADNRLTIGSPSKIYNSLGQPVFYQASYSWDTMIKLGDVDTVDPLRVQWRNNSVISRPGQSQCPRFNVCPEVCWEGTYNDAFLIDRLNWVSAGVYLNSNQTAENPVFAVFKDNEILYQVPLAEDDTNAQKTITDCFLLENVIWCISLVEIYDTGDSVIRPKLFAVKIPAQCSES

| Binder | IC50 of neutralization of HeV (plaque reduction assay) [1] [µg/mL] | IC50 of neutralization of NiVM (plaque reduction assay) [2] [µg/mL] | Area under the curve [3] | Kd [4] [nM] | binding result [5] |
| --- | --- | --- | --- | --- | --- |
| B1 | 0.27 | 0.31 | 3.71 | – | – |
| B2 | – | – | – | 2.1 | – |
| B3 | – | – | 5.39 | – | binds |
